Each sequence was assayed on Escherichia coli TOP10 (assay: shrunken log2 fold change of peptide-encoding DNA abundance (4.5 h post-induction vs induction); higher = less antimicrobial activity (less host growth inhibition)). Conditions: time post-induction: 4.5 h; library: site-saturation at positions 5, 18, 19, 20.
In the case of RRIRSRPPRLPRPRPRPVKTPRP, the “shrunken log2 fold change” value is reported as -0.0806.
For RRIRYRPPRLPRPRPRPKELPRP, the “shrunken log2 fold change” value was -0.0199.
RRIRLRPPRLPRPRPRPTDFPRP was tested, and the “shrunken log2 fold change” value was -0.0399.
With RRIRHRPPRLPRPRPRPADSPRP the “shrunken log2 fold change” value was -0.039.
RRIRVRPPRLPRPRPRPSYEPRP was tested, and the “shrunken log2 fold change” value was -0.298.
In the case of RRIRYRPPRLPRPRPRPNRDPRP, the “shrunken log2 fold change” value is reported as -0.0959.
With RRIRSRPPRLPRPRPRPRYDPRP the “shrunken log2 fold change” value was -0.444.
RRIRSRPPRLPRPRPRPCVWPRP was tested, and the “shrunken log2 fold change” value was 0.8.
RRIRPRPPRLPRPRPRPIWEPRP was tested, and the “shrunken log2 fold change” value was 0.0926.
With RRIRARPPRLPRPRPRPDDGPRP the “shrunken log2 fold change” value was -0.078.
For RRIRNRPPRLPRPRPRPSAEPRP, the “shrunken log2 fold change” value was 0.113.
With RRIRQRPPRLPRPRPRPRDTPRP the “shrunken log2 fold change” value was 0.0606.
RRIRQRPPRLPRPRPRPWWTPRP was tested, and the “shrunken log2 fold change” value was -0.01.
In the case of RRIRGRPPRLPRPRPRPLGKPRP, the “shrunken log2 fold change” value is reported as 0.362.
RRIRVRPPRLPRPRPRPNMIPRP was tested, and the “shrunken log2 fold change” value was -0.491.
With RRIRYRPPRLPRPRPRPLGQPRP the “shrunken log2 fold change” value was -0.261.
RRIRRRPPRLPRPRPRPEGDPRP was tested, and the “shrunken log2 fold change” value was 0.956.
For RRIRPRPPRLPRPRPRPTQMPRP, the “shrunken log2 fold change” value was 0.395.
In the case of RRIRIRPPRLPRPRPRPHTDPRP, the “shrunken log2 fold change” value is reported as -0.777.
RRIRPRPPRLPRPRPRPFAYPRP was tested, and the “shrunken log2 fold change” value was -0.135.
For RRIRIRPPRLPRPRPRPHFQPRP, the “shrunken log2 fold change” value was -1.78.
For RRIRMRPPRLPRPRPRPRPQPRP, the “shrunken log2 fold change” value was 1.13.
RRIRIRPPRLPRPRPRPGDLPRP was tested, and the “shrunken log2 fold change” value was -0.223.
RRIRRRPPRLPRPRPRPDQPPRP was tested, and the “shrunken log2 fold change” value was 0.0262.
With RRIRCRPPRLPRPRPRPWACPRP the “shrunken log2 fold change” value was -0.0929.
For RRIRKRPPRLPRPRPRPWYTPRP, the “shrunken log2 fold change” value was -0.177.
RRIRYRPPRLPRPRPRPYNDPRP was tested, and the “shrunken log2 fold change” value was -0.0979.
For RRIRVRPPRLPRPRPRPAFSPRP, the “shrunken log2 fold change” value was 0.104.
With RRIRIRPPRLPRPRPRPYLQPRP the “shrunken log2 fold change” value was -0.00195.
For RRIRMRPPRLPRPRPRPYERPRP, the “shrunken log2 fold change” value was -0.0671.
RRIRMRPPRLPRPRPRPRGTPRP was tested, and the “shrunken log2 fold change” value was 1.36.
RRIRVRPPRLPRPRPRPAEGPRP was tested, and the “shrunken log2 fold change” value was -0.0119.
RRIRARPPRLPRPRPRPKWQPRP was tested, and the “shrunken log2 fold change” value was 0.0511.
RRIRQRPPRLPRPRPRPMCQPRP was tested, and the “shrunken log2 fold change” value was -0.053.
For RRIRMRPPRLPRPRPRPHTCPRP, the “shrunken log2 fold change” value was -0.0858.
With RRIRVRPPRLPRPRPRPEWFPRP the “shrunken log2 fold change” value was -0.154.
For RRIRERPPRLPRPRPRPFEPPRP, the “shrunken log2 fold change” value was -0.195.
In the case of RRIRTRPPRLPRPRPRPWYVPRP, the “shrunken log2 fold change” value is reported as -0.275.
RRIRHRPPRLPRPRPRPFDFPRP was tested, and the “shrunken log2 fold change” value was -1.21.
RRIRHRPPRLPRPRPRPRKKPRP was tested, and the “shrunken log2 fold change” value was -0.0239.
With RRIRCRPPRLPRPRPRPRPSPRP the “shrunken log2 fold change” value was 0.695.
In the case of RRIRYRPPRLPRPRPRPCGSPRP, the “shrunken log2 fold change” value is reported as 0.00387.
For RRIRMRPPRLPRPRPRPSHDPRP, the “shrunken log2 fold change” value was 0.0846.
For RRIRGRPPRLPRPRPRPFNKPRP, the “shrunken log2 fold change” value was -0.158.
For RRIRFRPPRLPRPRPRPAMNPRP, the “shrunken log2 fold change” value was -0.102.
In the case of RRIRKRPPRLPRPRPRPLIQPRP, the “shrunken log2 fold change” value is reported as 0.112.
RRIRYRPPRLPRPRPRPMRIPRP was tested, and the “shrunken log2 fold change” value was 0.0121.
With RRIRLRPPRLPRPRPRPLCPPRP the “shrunken log2 fold change” value was -0.0651.
RRIRWRPPRLPRPRPRPAGEPRP was tested, and the “shrunken log2 fold change” value was 0.432.
RRIRPRPPRLPRPRPRPPYMPRP was tested, and the “shrunken log2 fold change” value was -0.288.
For RRIRYRPPRLPRPRPRPMDNPRP, the “shrunken log2 fold change” value was -0.0386.
RRIRHRPPRLPRPRPRPEKIPRP was tested, and the “shrunken log2 fold change” value was 0.0327.
In the case of RRIRFRPPRLPRPRPRPFEFPRP, the “shrunken log2 fold change” value is reported as -0.183.
RRIRYRPPRLPRPRPRPSKMPRP was tested, and the “shrunken log2 fold change” value was -0.365.
RRIRWRPPRLPRPRPRPIVNPRP was tested, and the “shrunken log2 fold change” value was -0.0307.
With RRIRYRPPRLPRPRPRPFIQPRP the “shrunken log2 fold change” value was -0.126.
For RRIRDRPPRLPRPRPRPHTSPRP, the “shrunken log2 fold change” value was 0.0247.
RRIRDRPPRLPRPRPRPGTYPRP was tested, and the “shrunken log2 fold change” value was -0.227.
RRIRGRPPRLPRPRPRPGCDPRP was tested, and the “shrunken log2 fold change” value was 1.26.
For RRIRQRPPRLPRPRPRPQTMPRP, the “shrunken log2 fold change” value was 0.0333.
For RRIRVRPPRLPRPRPRPISSPRP, the “shrunken log2 fold change” value was -0.136.
With RRIRYRPPRLPRPRPRPHGFPRP the “shrunken log2 fold change” value was 0.0238.
With RRIRHRPPRLPRPRPRPRMDPRP the “shrunken log2 fold change” value was 0.0986.
For RRIRFRPPRLPRPRPRPLSHPRP, the “shrunken log2 fold change” value was -0.512.
For RRIRDRPPRLPRPRPRPWGSPRP, the “shrunken log2 fold change” value was -0.0321.
For RRIRWRPPRLPRPRPRPWHAPRP, the “shrunken log2 fold change” value was 0.0362.
With RRIRKRPPRLPRPRPRPIDRPRP the “shrunken log2 fold change” value was -0.0769.
With RRIRPRPPRLPRPRPRPVEFPRP the “shrunken log2 fold change” value was 0.068.
With RRIRERPPRLPRPRPRPSNMPRP the “shrunken log2 fold change” value was -0.683.
RRIRRRPPRLPRPRPRPRFWPRP was tested, and the “shrunken log2 fold change” value was 0.652.
RRIRGRPPRLPRPRPRPAGHPRP was tested, and the “shrunken log2 fold change” value was 0.562.
In the case of RRIRLRPPRLPRPRPRPKEDPRP, the “shrunken log2 fold change” value is reported as -0.184.
In the case of RRIRWRPPRLPRPRPRPFYMPRP, the “shrunken log2 fold change” value is reported as -0.297.
In the case of RRIRDRPPRLPRPRPRPYSTPRP, the “shrunken log2 fold change” value is reported as -0.0663.
With RRIRARPPRLPRPRPRPWQVPRP the “shrunken log2 fold change” value was 0.191.
RRIRPRPPRLPRPRPRPIISPRP was tested, and the “shrunken log2 fold change” value was -0.189.
For RRIRFRPPRLPRPRPRPAEFPRP, the “shrunken log2 fold change” value was 1.14.
In the case of RRIRMRPPRLPRPRPRPQPPPRP, the “shrunken log2 fold change” value is reported as 1.18.
In the case of RRIRWRPPRLPRPRPRPVALPRP, the “shrunken log2 fold change” value is reported as 0.459.
RRIRVRPPRLPRPRPRPLLPPRP was tested, and the “shrunken log2 fold change” value was 0.328.
With RRIRLRPPRLPRPRPRPPIAPRP the “shrunken log2 fold change” value was 0.192.
For RRIRLRPPRLPRPRPRPSMYPRP, the “shrunken log2 fold change” value was -0.261.
For RRIRGRPPRLPRPRPRPVTMPRP, the “shrunken log2 fold change” value was 0.396.
With RRIRSRPPRLPRPRPRPKKSPRP the “shrunken log2 fold change” value was -0.0117.
For RRIRERPPRLPRPRPRPWGGPRP, the “shrunken log2 fold change” value was 0.267.
For RRIRYRPPRLPRPRPRPSGIPRP, the “shrunken log2 fold change” value was -0.119.
RRIRLRPPRLPRPRPRPHITPRP was tested, and the “shrunken log2 fold change” value was -0.824.
With RRIRIRPPRLPRPRPRPHKQPRP the “shrunken log2 fold change” value was -0.0164.
RRIRGRPPRLPRPRPRPVMPPRP was tested, and the “shrunken log2 fold change” value was 0.16.
In the case of RRIRNRPPRLPRPRPRPFCVPRP, the “shrunken log2 fold change” value is reported as -0.0352.
In the case of RRIRKRPPRLPRPRPRPRPVPRP, the “shrunken log2 fold change” value is reported as 0.732.
With RRIRCRPPRLPRPRPRPVESPRP the “shrunken log2 fold change” value was -0.0217.
For RRIRGRPPRLPRPRPRPIVTPRP, the “shrunken log2 fold change” value was 0.583.
RRIRKRPPRLPRPRPRPEAQPRP was tested, and the “shrunken log2 fold change” value was 0.29.
With RRIRHRPPRLPRPRPRPNQKPRP the “shrunken log2 fold change” value was -0.0319.
RRIRCRPPRLPRPRPRPGFWPRP was tested, and the “shrunken log2 fold change” value was 0.226.
For RRIRQRPPRLPRPRPRPERCPRP, the “shrunken log2 fold change” value was 0.00749.
With RRIRHRPPRLPRPRPRPSGHPRP the “shrunken log2 fold change” value was -0.172.
For RRIRQRPPRLPRPRPRPLPAPRP, the “shrunken log2 fold change” value was 0.214.
In the case of RRIRIRPPRLPRPRPRPMIWPRP, the “shrunken log2 fold change” value is reported as -0.0224.
For RRIRSRPPRLPRPRPRPHHNPRP, the “shrunken log2 fold change” value was -0.708.
In the case of RRIRARPPRLPRPRPRPMCWPRP, the “shrunken log2 fold change” value is reported as 0.737.
With RRIRTRPPRLPRPRPRPHMAPRP the “shrunken log2 fold change” value was -0.123.
With RRIRARPPRLPRPRPRPVEAPRP the “shrunken log2 fold change” value was 0.365.
RRIRFRPPRLPRPRPRPEWNPRP was tested, and the “shrunken log2 fold change” value was -0.21.
With RRIRHRPPRLPRPRPRPIMLPRP the “shrunken log2 fold change” value was -0.389.
For RRIRTRPPRLPRPRPRPMHEPRP, the “shrunken log2 fold change” value was -0.0192.
With RRIRTRPPRLPRPRPRPEHKPRP the “shrunken log2 fold change” value was -0.0645.
For RRIRHRPPRLPRPRPRPMHNPRP, the “shrunken log2 fold change” value was 0.708.

Source: the supplement of paper PMC9112550, “Optimization of the antimicrobial peptide Bac7 by deep mutational scanning” (BMC Biology, 2022)
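Further: peptides expressed intracellularly from a pBAD plasmid library in pooled LB shake-flask culture, induced with 0.3% L-arabinose, DNA abundance read by NGS, three biological replicates, DESeq2 with apeglm shrinkage.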
